# Assay results from PMC8172861, “Structural and phylogenetic analyses of resistance to next-generation aminoglycosides conferred by AAC(2′) enzymes” (Scientific Reports, 2021).
# B1: AAC(2′)-Ia from Providencia stuartii (enzyme)
# chain: MGIEYRSLHTSQLTLSEKEALYDLLIEGFEGDFSHDDFAHTLGGMHVMAFDQQKLVGHVAIIQRHMALDNTPISVGYVEAMVVEQSYRRQGIGRQLMLQTNKIIASCYQLGLLSASDDGQKLYHSVGWQIWKGKLFELKQGSYIRSIEEEGGVMGWKADGEVDFTASLYCDFRGGDQW
# notes: AAC(2′)-Ia, aminoglycoside 2′-N-acetyltransferase from Providencia stuartii; synthesized gene in pET-15b (NdeI/BamHI); Crystallised with acetyl-CoA or CoA and an aminoglycoside; also called aminoglycoside (2′)-N-acetyltransferase; source: E. coli BL21(DE3), purified (Ni-IDA-Sepharose, thrombin cleavage, benzamidine column, DEAE Sepharose); not shown: HIS-tag, N-terminal, cleaved
# Biological target: the molecule itself
# Assay: crystal structure; crystals grown at 4 °C by sitting-drop vapour diffusion, 10 mg/mL AAC(2′)-Ia with 10 mM acetyl-CoA and 10 mM antibiotic (tobramycin, netilmicin or amikacin); two chains (A and B) in the models
protein,measurement,value
B1,binding result,binds
